{"source": "paper PMC3907030", "about": "“Using phage display selected antibodies to dissect microbiomes for complete de novo genome sequencing of low abundance microbes” (BMC Microbiology, 2013)", "binders": {"B1": {"name": "α-La1 scFv (scFv, V domains shown)", "VH": "QVQLQQSGPGLVKPSQTLSLACAISGDSVSSNSAAWNWIRQSPSRGLEWLGRIYYRSKWYNDYAVSVKSRITINPDTSKNQFSLQLNSVTPEDTAVYYCARERYGAFDIWGQGTMVTVSS", "VL": "SYELTQPPSASGTPGQRVTISCSGSSSNIGSNYVYWYQQLPGTAPKLLIYRNNQRPSGVPDRFSGSKSGTSASLAITGLQAEDEADYYCQSYDSSLSGYVFGTRTKLTVL", "notes": "residues before the VL; VL of α-La1; linker between VL and VH; VH of α-La1; residues between the VH and the SV5 tag; Expressed from pEP-GFP11 with an N-terminal PelB leader and C-terminal SV5, 6x His and GFP strand 11 tags; limits of VL, linker and VH and the reading of GAHA and AS as vector-derived residues are my surmise; also called anti-La1; α-La scFv; source: …"}, "B2": {"name": "α-La4 scFv (scFv, V domains shown)", "VH": "QVQLQQSGPGLVKPSQILSLTCAISGDSVSSNSADWNWIRQSPSRGLEWLGRTYYRSKWYNDYAVLVKSRITINPDTSKNQFSLQLNSVTPEDTAVYYCARGSLGAFDIWGQGTMVTVSS", "VL": "QAVVTQEPSASETPGQRVTISCSGSDSNIGSNYVYWYQQVPGTAPKLVIYRNNQRPSGVPDRFSGSKSGTSASLGIRGLQSEDEADYYCAAWDDSVSGWVFGGRTKLTVL", "notes": "The vector adds an N-terminal PelB leader; source: E. coli BL21 Gold, pEP-GFP11, culture supernatant; not shown: SV5, C-terminal, kept"}, "B3": {"name": "α-La4 scFv (scFv, V domains shown)", "VH": "QVQLQQSGPGLVKPSQILSLTCAISGDSVSSNSADWNWIRQSPSRGLEWLGRTYYRSKWYNDYAVLVKSRITINPDTSKNQFSLQLNSVTPEDTAVYYCARGSLGAFDIWGQGTMVTVSS", "VL": "QAVVTQEPSASETPGQRVTISCSGSDSNIGSNYVYWYQQVPGTAPKLVIYRNNQRPSGVPDRFSGSKSGTSASLGIRGLQSEDEADYYCAAWDDSVSGWVFGGRTKLTVL", "notes": "residues before the VL; VL of α-La4; linker between VL and VH; VH of α-La4; residues between the VH and the SV5 tag; Expressed from pEP-GFP11 with an N-terminal PelB leader and C-terminal SV5, 6x His and GFP strand 11 tags; limits of VL, linker and VH and the reading of GAHA and AS as vector-derived residues are my surmise; also called anti-La4; source: E. coli …"}, "B4": {"name": "α-La2 scFv (scFv, V domains shown)", "VH": "EVQLVETGGGLVKPGGSLRLSCAASGFTLSNAWMHWVRQAPGKGLEWVGRIRRKTDGGTTDYAAPVKGRFTISRDDSKNTLYLQMNSLKTEDTAVYYCSTDDYGGNWGQGTLVTVSS", "VL": "QSVLTQPASVSGSPGQSITISCTGTSSDVGSYNYVSWYQQHPGKAPKLMIYDVSNRPSGVSNRFSGSKSGNTASLTISGLQAEDEADYYCSSYTSSSTNVFGTGTQLTVL", "notes": "residues before the VL; VL of α-La2; linker between VL and VH; VH of α-La2; residues between the VH and the SV5 tag; Expressed from pEP-GFP11 with an N-terminal PelB leader and C-terminal SV5, 6x His and GFP strand 11 tags; limits of VL, linker and VH and the reading of GAHA and AS as vector-derived residues are my surmise; also called anti-La2; source: E. coli …"}, "B5": {"name": "α-La2 scFv (scFv, V domains shown)", "VH": "EVQLVETGGGLVKPGGSLRLSCAASGFTLSNAWMHWVRQAPGKGLEWVGRIRRKTDGGTTDYAAPVKGRFTISRDDSKNTLYLQMNSLKTEDTAVYYCSTDDYGGNWGQGTLVTVSS", "VL": "QSVLTQPASVSGSPGQSITISCTGTSSDVGSYNYVSWYQQHPGKAPKLMIYDVSNRPSGVSNRFSGSKSGNTASLTISGLQAEDEADYYCSSYTSSSTNVFGTGTQLTVL", "notes": "The vector adds an N-terminal PelB leader; also called anti-La2; source: E. coli BL21 Gold, pEP-GFP11, culture supernatant; not shown: SV5, C-terminal, kept"}, "B6": {"name": "α-La3 scFv (scFv, V domains shown)", "VH": "QVQLQESGPGLVKPSETLSLTCAISGDSVSSNSAAWNWIRQSPSRGLEWLGRTYYRSKWYNDYAVSVKSRITINPDTSKNQFSLQLNSVTPEDTAVYYCATGDAFDMWGQGTMVTVSS", "VL": "SYVLTQPPSVSGTPGQRVTISCSGSSSNIERNYVYWYQQLPGTAPKLLIYRNNQRPSGVPDRFSGSKSGTSASLAISGLRSEDEADYYCAAWDDSQNAYVFGTGTKLTVL", "notes": "residues before the VL; VL of α-La3; linker between VL and VH; VH of α-La3; residues between the VH and the SV5 tag; Expressed from pEP-GFP11 with an N-terminal PelB leader and C-terminal SV5, 6x His and GFP strand 11 tags; limits of VL, linker and VH and the reading of GAHA and AS as vector-derived residues are my surmise; also called anti-La3; source: E. coli …"}, "B7": {"name": "α-La3 scFv (scFv, V domains shown)", "VH": "QVQLQESGPGLVKPSETLSLTCAISGDSVSSNSAAWNWIRQSPSRGLEWLGRTYYRSKWYNDYAVSVKSRITINPDTSKNQFSLQLNSVTPEDTAVYYCATGDAFDMWGQGTMVTVSS", "VL": "SYVLTQPPSVSGTPGQRVTISCSGSSSNIERNYVYWYQQLPGTAPKLLIYRNNQRPSGVPDRFSGSKSGTSASLAISGLRSEDEADYYCAAWDDSQNAYVFGTGTKLTVL", "notes": "as for B2"}}, "conditions_in_all_cases": "partners not purified", "key": {"[1]": {"biological_target": "T1, L. acidophilus S-layer A protein (SlpA), on L. acidophilus ATCC 4356 cells (Lactobacillus acidophilus ATCC 4356, UniProt P35829)", "T1 construct": "the flow cytometry itself was done on whole bacteria; also called S-layer protein A; Surface layer protein A; source: endogenous, on intact L. acidophilus ATCC 4356 cells", "T1 sequence (P35829 25-444)": "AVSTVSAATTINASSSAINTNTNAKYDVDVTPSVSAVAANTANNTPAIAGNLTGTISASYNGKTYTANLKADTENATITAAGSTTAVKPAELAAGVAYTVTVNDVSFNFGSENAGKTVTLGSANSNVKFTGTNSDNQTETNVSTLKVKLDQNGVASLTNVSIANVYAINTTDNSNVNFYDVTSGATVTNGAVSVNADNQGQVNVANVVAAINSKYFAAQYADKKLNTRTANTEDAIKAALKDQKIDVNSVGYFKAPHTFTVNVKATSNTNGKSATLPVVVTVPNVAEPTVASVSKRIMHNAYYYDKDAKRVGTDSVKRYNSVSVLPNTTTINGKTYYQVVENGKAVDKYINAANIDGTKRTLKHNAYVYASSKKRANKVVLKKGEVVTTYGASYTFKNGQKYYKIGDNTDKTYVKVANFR", "test": "flow cytometry on cells; scFv culture supernatant (200 μl, unpurified) incubated with 10^6-10^7 washed bacteria in PBS, 1 h at RT; detected with anti-SV5-PE; BD LSRII"}, "[2]": {"biological_target": "T2, L. acidophilus S-layer A protein (SlpA), on L. acidophilus ATCC 832 cells (Lactobacillus acidophilus ATCC 832; …, UniProt P35829)", "T2 construct": "the flow cytometry was done on whole bacteria; also called L. acidophilus st; source: endogenous, on intact L. acidophilus ATCC 832 cells", "T2 sequence (P35829 25-444)": "as above", "test": "flow cytometry on cells; scFv culture supernatant (200 μl, unpurified) incubated with 10^6-10^7 washed bacteria in PBS, 1 h at RT; detected with anti-SV5-PE; BD LSRII"}, "[3]": {"biological_target": "T3, L. acidophilus S-layer A protein (Lactobacillus acidophilus (ATCC 4356; …, UniProt P35829)", "T3 construct": "S-layer A protein (SlpA) of Lactobacillus acidophilus, Uniprot P35829; band of ~45 kDa; On the bacterial surface in flow cytometry; denatured (SDS, β-mercaptoethanol, boiled) on the blot; The MS search used an L. acidophilus NCFM database; also called SlpA; S-layer protein A", "T3 sequence (P35829 25-444)": "as above", "test": "flow cytometry on cells; 200 μl scFv culture supernatant added to 10^6-10^7 washed bacteria in PBS, 1 h at RT; detected with anti-SV5-PE; BD LSRII"}}, "data": [{"binder": "B1", "values": [{"measurement": "binding result", "setting": "[1]", "result": "binds"}, {"measurement": "binding result", "setting": "[2]", "result": "binds"}]}, {"binder": "B2", "values": [{"measurement": "binding result", "setting": "[3]", "result": "binds"}]}, {"binder": "B3", "values": [{"measurement": "binding result", "setting": "[1]", "result": "binds"}, {"measurement": "binding result", "setting": "[2]", "result": "binds"}]}, {"binder": "B4", "values": [{"measurement": "binding result", "setting": "[1]", "result": "binds"}]}, {"binder": "B5", "values": [{"measurement": "binding result", "setting": "[3]", "result": "binds"}]}, {"binder": "B6", "values": [{"measurement": "binding result", "setting": "[1]", "result": "binds"}, {"measurement": "binding result", "setting": "[2]", "result": "binds"}]}, {"binder": "B7", "values": [{"measurement": "binding result", "setting": "[3]", "result": "binds"}]}]}
